In publication doi:10.1101/2020.05.27.119552:

Biological target: dHtt-eGFP fusion protein (Drosophila Huntingtin with a C-terminal eGFP tag) (Drosophila)
Test: affinity purification with mass spectrometry

stoichiometry N: 1 molar ratio
Substance: CG8134/dHap40 (Drosophila HAP40), endogenous ~40 kDa protein (from UniProt Q9VXR6 1-345) (natural protein)
